Patent publication US7387779B2, “Anti-angiogenic proteins and fragments and methods of use thereof” (Beth Israel Deaconess Medical Center, priority 1998, dated 2008)

Columns and labels:
C-PAE cells = experiment: MTT cell viability assay; format: cell-based, bovine
Description: The pro-apoptotic activity of Tumstatin N-53 was examined in C-PAE cells. Cell viability was assessed by MTT (3-(4,5-dimethylthiazol-2-yl)-2-,5-diphenyl tetrasolium bromide) assay (Sugiyama, H. et al., 1998, Kidney Int. 54:1188-96). This assay is a quantitative calorimetric analysis for cell survival based on the ability of living cells to cleave the tetrasolium ring in active mitochondria. C-PAE cells (7,000 cells perwell) were plated to a 96-well plate in 10% FCS containing DMEM. The next day, either TNF-α (positive control, 80 ng/ml), or varying concentrations of Tumstatin or Tumstatin N-53 was added to the wells and incubated for 24 hours. MTT solution (5 mg/ml; CHEMICON International, Temecula, Calif., USA) was then added to the wells at a rate of 10 μl/well and incubated at 37° C. for 4 hours. Acid-isopropanol was added and mixed thoroughly. The absorbance was measured in a microplate reader (Bio-Rad, Hercules, Calif., USA) at 590 nm.
The MTT assay was used to evaluate cell viability in C-PAE endothelial cells and WM-164 melanoma cells after treatment with Tumstatin, Tum-1, Tum-2, Tum-3 and Tum-4. The results are shown in FIGS. 34A and 34B, which are a pair of graphs showing the effect of increasing concentration (x-axis) of Tumstatin, Tum-1, Tum-2, Tum-3 and Tum-4 on the cell viability (y-axis) of C-PAE cells (FIG. 34A) and WM-164 cells (FIG. 34B). Each point represents the mean ±the standard error of the mean for triplicate wells.
To further evaluate the mechanism of T3 peptide on endothelial cell proliferation, the effect of T3 peptide on cell cycle progression was analyzed. In the growth arrested and contact inhibited cells (0 hour), 4.1% of cells were in S phase. […] This was true even at a maximal dosage of 100 μg/ml. The effect of the T3 peptide was dose-dependent, however, with the percentage of cells in S phase at 21.4% at 10 μg/ml, and 20.5% at 25 μg/ml. The percentage of cells in G0/G1 phase was 88.3% at 0 hour, 53.4% for the bFGF control, and 57.6%, 57.6% and 71.0% for treatments with T1, T6 and T3 peptide, respectively. […] Apoptotic Activity: Peptides T2, T3, T4, T5 and T6 (10 μg/ml concentration) were tested for their effect of viability of C-PAE cells using the MTT assay, as described in Examples 32 and 36 above. The results are shown in FIG. 43D, which is a histogram showing cell viability as measured at OD595 (y-axis), and treatments with the synthetic peptides (x-axis). […] TNF-α (100 ng/ml) was used to serve as a positive control in inducing endothelial cell apoptosis.
Cell viability was measured by MTT assay, as described above.

human αvβ3 protein = target: T1, human αvβ3 protein (Homo sapiens, UniProt P05106+P06756); experiment: Competition proliferation assay with soluble αvβ3 protein, C-PAE cells; format: cell-based, bovine
T1 construct: purchased CHEMICON Int'l, Temecula, Calif., USA
Description: C-PAE cells were plated into 96-well plates as described above for the endothelial cell proliferation assay. Tumstatin at a final concentration of 0.1 μg/ml was incubated with varying concentrations (0, 0.008, 0.08, 0.8, 1.6 and 2.4 μg/ml) of human αvβ3 protein (CHEMICON Int'l, Temecula, Calif., USA) for 30 minutes at room temperature. This mixture was then added into the wells, and incubated for 48 hours. The proliferation assay was then performed using the methylene blue staining method, as described above for the endothelial cell proliferation assay.
The integrin αvβ3 was then investigated for its ability to reverse the anti-proliferative effects of Tumstatin and Tum-2. Tumstatin and Tum-2 were incubated with αvβ3 protein for 30 minutes, and added to C-PAE cells which were plated in 96-well plates and incubated overnight with growth media. After incubation for 48 hours, the cell number was determined by methylene blue staining.
Integrin αvβ3 was investigate for its ability to reverse the anti-proliferative affects of peptide T3. T3 peptide was incubated with 0, 0.001, 0.01, 0.1, 0.5, or 1.0 μg/ml αvβ3 integrin protein (CHEMICON Int'l, Temecula, Calif., USA) for 30 minutes at room temperature, and was then added, at 20 μg/ml final concentration, to C-PAE cells that had been grown in 96-well plates in growth media. After 48 hours of additional incubation, cell number was determined by the methylene blue assay. The results are shown in FIG. 43C, which is a histogram showing the growth of C-PAE cells (y-axis) when treated with T3 peptide that had been pre-incubated with varying concentrations (x-axis) of αvβ3 integrin.
Soluble αvβ3 integrin protein reversed the anti-proliferative effects of Tumstatin-44-131. This was shown by a competition proliferation assay as described above in Example 26. […] E. Coli-expressed Tumstatin-44-131 was then incubated with αvβ3 integrin protein for 30 minutes, and then added to C-PAE cells with 20% FCS. After 48 hours, cell proliferation was determined by methylene blue staining. The anti-proliferative affect of Tumstatin-44-131 was reversed dose-dependently with increasing concentrations of αvβ3 soluble protein.

T1 sequence (P06756 31-889 limits assumed): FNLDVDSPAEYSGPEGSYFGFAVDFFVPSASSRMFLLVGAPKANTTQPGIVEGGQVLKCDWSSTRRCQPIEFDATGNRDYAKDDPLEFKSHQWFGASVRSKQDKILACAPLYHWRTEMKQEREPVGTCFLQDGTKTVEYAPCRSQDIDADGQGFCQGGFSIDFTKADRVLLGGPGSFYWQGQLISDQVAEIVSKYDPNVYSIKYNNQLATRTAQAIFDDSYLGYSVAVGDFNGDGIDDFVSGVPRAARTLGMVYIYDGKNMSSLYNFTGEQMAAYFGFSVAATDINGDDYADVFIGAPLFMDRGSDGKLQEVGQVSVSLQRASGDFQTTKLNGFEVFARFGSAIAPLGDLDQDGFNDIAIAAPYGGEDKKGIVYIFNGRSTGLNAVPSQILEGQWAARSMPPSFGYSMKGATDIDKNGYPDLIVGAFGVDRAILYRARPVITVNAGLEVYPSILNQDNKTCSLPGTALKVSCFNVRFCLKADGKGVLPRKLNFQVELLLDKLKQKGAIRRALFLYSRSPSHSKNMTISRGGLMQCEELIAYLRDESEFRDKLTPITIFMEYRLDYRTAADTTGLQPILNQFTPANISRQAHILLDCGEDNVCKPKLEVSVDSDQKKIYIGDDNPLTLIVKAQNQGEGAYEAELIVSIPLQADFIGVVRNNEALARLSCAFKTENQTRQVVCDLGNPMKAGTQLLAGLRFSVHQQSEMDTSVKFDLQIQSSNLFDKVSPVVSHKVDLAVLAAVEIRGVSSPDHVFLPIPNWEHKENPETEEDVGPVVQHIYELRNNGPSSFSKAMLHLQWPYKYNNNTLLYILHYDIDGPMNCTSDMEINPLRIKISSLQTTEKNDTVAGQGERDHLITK
T1 sequence (P06756 891-1048 partner limits assumed): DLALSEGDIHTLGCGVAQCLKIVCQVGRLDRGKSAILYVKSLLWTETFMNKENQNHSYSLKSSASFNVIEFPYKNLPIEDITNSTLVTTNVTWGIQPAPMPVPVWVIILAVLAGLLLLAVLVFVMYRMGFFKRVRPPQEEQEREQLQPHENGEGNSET
T1 sequence (P05106 27-788): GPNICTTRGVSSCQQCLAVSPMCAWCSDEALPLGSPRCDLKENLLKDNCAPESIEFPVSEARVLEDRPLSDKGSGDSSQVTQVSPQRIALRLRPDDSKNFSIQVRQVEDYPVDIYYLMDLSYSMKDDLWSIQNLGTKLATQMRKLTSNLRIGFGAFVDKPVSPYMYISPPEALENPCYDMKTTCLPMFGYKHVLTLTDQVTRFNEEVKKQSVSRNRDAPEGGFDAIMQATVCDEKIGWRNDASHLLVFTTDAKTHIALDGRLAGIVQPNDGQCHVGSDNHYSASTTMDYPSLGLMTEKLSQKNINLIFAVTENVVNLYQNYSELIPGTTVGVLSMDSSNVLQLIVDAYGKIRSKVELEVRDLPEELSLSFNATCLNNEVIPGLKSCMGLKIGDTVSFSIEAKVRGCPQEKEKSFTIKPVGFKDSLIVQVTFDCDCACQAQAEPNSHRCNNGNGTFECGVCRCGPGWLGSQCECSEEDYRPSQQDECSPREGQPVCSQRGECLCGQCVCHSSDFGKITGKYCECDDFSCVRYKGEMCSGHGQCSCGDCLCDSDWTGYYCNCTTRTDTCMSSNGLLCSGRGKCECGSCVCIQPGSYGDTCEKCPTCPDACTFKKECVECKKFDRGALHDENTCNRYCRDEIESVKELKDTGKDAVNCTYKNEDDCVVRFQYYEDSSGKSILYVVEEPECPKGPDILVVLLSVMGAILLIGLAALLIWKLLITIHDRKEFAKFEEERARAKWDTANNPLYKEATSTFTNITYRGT

LQRFTTMPFLFCNVNDVCNF [T3]
effect on cell viability (C-PAE cells): significantly decrease cell viability
anti-proliferative effect after pre-incubation with αvβ3 integrin protein (human αvβ3 protein; peptide 20 μg/ml): significantly decreased

B1: Tum-1: residues 54 to 244 of Tumstatin, lacking the N-terminal 53 amino acids (SEQ ID NO:22) (protein)
chain: QRAHGQDLGTLGSCLQRFTTMPFLFCNVNDVCNFASRNDYSYWLSTPALMPMNMAPITGRALEPYISRCTVCEGPAIAIAVHSQTTDIPPCPHGWISLWKGFSFIMFTSAGSEGTGQALASPGSCLEEFRASPFLECHGRGTCNYYSNSYSFWLASLNPERMFRKPIPSTVKAGELEKIISRCQVCMKKRH
modifications: Tum-1 (Tumstatin N-53) (amino acids 54-244 of SEQ ID NO10)
effect on cell viability (C-PAE cells): decreases cell viability in a dose-dependent manner
decrease of cell viability (C-PAE cells; 5 μg/ml, 24 hours): 49.4%

B2: Tum-2: residues 1 to 132 of Tumstatin (SEQ ID NO:23) (protein)
chain: GLKGKRGDSGSPATWTTRGFVFTRHSQTTAIPSCPEGTVPLYSGFSFLFVQGNQRAHGQDLGTLGSCLQRFTTMPFLFCNVNDVCNFASRNDYSYWLSTPALMPMNMAPITGRALEPYISRCTVCEGPAIAI
modifications: Tum-2 (amino acids 1-132 of SEQ ID NO10)
recovery of anti-proliferative effect by soluble αvβ3 protein (human αvβ3 protein; 2 g/ml αvβ3 protein (so in the source)): 74.1%

B3: Tumstatin-44-131: residues 44 to 131 of full-length Tumstatin (SEQ ID NO:33) (protein)
chain: FSFLFVQGNQRAHGQDLGTLGSCLQRFTTMPFLFCNVNDVCNFASRNDYSYWLSTPALMPMNMAPITGRALEPYISRCTVCEGPAIAI
modifications: Tumstatin-45-132 (amino acids 45-132 of SEQ ID NO10)
ED50, decrease of cell viability (C-PAE cells): 12 µg/mL
reversal of anti-proliferative effect by soluble αvβ3 protein (human αvβ3 protein; αvβ3 protein at 1 μg/ml, 20% FCS): 65.9%

B4: Tumstatin: NC1 domain of the α3 chain of type IV collagen, residues 1-244 (SEQ ID NO:10) (protein, listed as Homo sapiens)
chain: GLKGKRGDSGSPATWTTRGFVFTRHSQTTAIPSCPEGTVPLYSGFSFLFVQGNQRAHGQDLGTLGSCLQRFTTMPFLFCNVNDVCNFASRNDYSYWLSTPALMPMNMAPITGRALEPYISRCTVCEGPAIAIAVHSQTTDIPPCPHGWISLWKGFSFIMFTSAGSEGTGQALASPGSCLEEFRASPFLECHGRGTCNYYSNSYSFWLASLNPERMFRKPIPSTVKAGELEKIISRCQVCMKKRH
decrease of cell viability (C-PAE cells; 5 μg/ml, 24 hours): 22.5%
decrease of cell viability (C-PAE cells; 10 μg/ml): 60%
reversal of anti-proliferative effect by soluble αvβ3 protein (human αvβ3 protein; αvβ3 at 2.4 μg/ml (3-fold molar excess), Tumstatin 0.1 μg/ml): 43.1%
